The results in this text go back to paper PMC11032371 (Cell Death Discovery, 2024).

Data set [1] concerns the molecule itself. The data set can be described thus: SEC; analytical size exclusion, Superose 12 10/300; 50 mM HEPES pH 8.5, 150 mM NaCl, 1 mM DTT, 0.5% Triton X-100. On the technique in general: In gel filtration, larger molecules generally elute earlier.
The target of data set [2] is T1, monoUb (UniProt P0CG48 1-76).
T1 construct: ubiquitin; 15N-labelled in some NMR titrations; also called ubiquitin
In words: ITC; 293 K; 50 mM HEPES pH 7.4, 50 mM NaCl, 0.5 mM TCEP; cell 50–100 μM, syringe usually 10-fold; 20 injections of 2 μl; averages of at least two experiments; which partner was in the syringe not stated. The settings on record: both partners purified. (In general: Isothermal titration calorimetry measures the heat released or taken up as one component is titrated into another.)

The target of data set [3] is T2, M1-diUb (UniProt P0CG48 1-76; P0CG48 1-76).
T2 construct: ubiquitin, distal unit of M1-linked (linear) diUb; ubiquitin, proximal unit of M1-linked (linear) diUb; also called M1-linked diUb; linear diUb
The data set is described as above. The settings on record: both partners purified.

In data set [4] the target is T1, monoUb. In words: SPR; Biacore S200; TF-N4BP1 fragment amine-coupled to a CM5 chip, mono- and diUb flowed over at 30 μl/min; HBS-P+ (10 mM HEPES pH 7.4, 150 mM NaCl, 0.05% Tween 20), 25 °C; KD from plateau levels. The settings on record: both partners purified. (In general: Surface plasmon resonance follows binding to a sensor surface in real time, without labels.)

The target in data set [5] is T2, M1-diUb. The description is as above. The settings on record: both partners purified.

B1: N4BP1 (850–893) (domain or fragment, mouse, UniProt Q6A037 850-893, looked up)
chain: ETSELREALLKIFPDSEQKLKIDQILAAHPYMKDLNALSALVLD
notes: His-tag removed with 3C protease for ITC and NMR; 15N- or 15N/13C-labelled for NMR; also called isolated CUE domain; N4BP1 CUE domain; not shown: His-tag, N-terminal, cleaved
A word on the Kd: it is a measure of binding affinity in units of concentration. Low values mean higher affinity, high ones lower affinity. The stoichiometry N is the number of molecules, sites or subunits per partner or assembly. As to B1, in data set [1], the binding result is listed as “binds”. For the same molecule, in data set [2], the equilibrium dissociation constant (Kd) turned out to be 27.5 ± 5.6 µM, the dH is -5.2 kcal/mol and the “stoichiometry N” value came to 0.915. In data set [3], the dH was -5.3 kcal/mol and the “stoichiometry N” value was 2.16.

B2: TF-N4BP1 (613–893) (domain or fragment, mouse, UniProt Q6A037 613-893, looked up)
chain: ADLKHIVIDGSNVAITHGLKKFFSCRGIAIAVEYFWKLGNRNITVFVPQWRTRRDPNITEQHFLTQLQELGILSLTPARMVFGERIASHDDRFLLHLADKTGGIIVTNDNFREFVTESVSWREIITKRLLQYTFVGDIFMVPDDPLGRNGPRLEEFLRKEAFLRHMQPLLNALPSVGTFDPGFRSPSTQVANNSHQPPPRIQTSSSPWLPQQSHFTALATLPSMQQNPPLPAQRSSAETSELREALLKIFPDSEQKLKIDQILAAHPYMKDLNALSALVLD
notes: also called dimeric N4BP1
Turning to B2, the Kd in data set [4] is 84.9 µM; in data set [5] it was 0.43 µM.

B3: N4BP1 (613–893), from pCold-I, His-tagged (domain or fragment, mouse, UniProt Q6A037 613-893, looked up)
chain: B2 chain
notes: source: E. coli BL21, purified
On to B3, for which, in data set [1], the binding result was “binds”.

B4: N4BP1 (613-774), from pCold-I, His-tagged (domain or fragment, mouse, UniProt Q6A037 613-774, looked up)
chain: ADLKHIVIDGSNVAITHGLKKFFSCRGIAIAVEYFWKLGNRNITVFVPQWRTRRDPNITEQHFLTQLQELGILSLTPARMVFGERIASHDDRFLLHLADKTGGIIVTNDNFREFVTESVSWREIITKRLLQYTFVGDIFMVPDDPLGRNGPRLEEFLRKEAF
notes: N4BP1, mouse, RNase domain, residues 613-774; source: E. coli BL21, purified
For the molecule B4, the binding result in data set [1] is given as “binds”.
